Source: patent publication US20130089560A1

Target: human BMPR1A, endogenous on human Saos2 cells (human) (UniProt P36894)
Assay: cell-based or functional assay

Chain of UniProt P36894 (P36894 24-532 limits assumed): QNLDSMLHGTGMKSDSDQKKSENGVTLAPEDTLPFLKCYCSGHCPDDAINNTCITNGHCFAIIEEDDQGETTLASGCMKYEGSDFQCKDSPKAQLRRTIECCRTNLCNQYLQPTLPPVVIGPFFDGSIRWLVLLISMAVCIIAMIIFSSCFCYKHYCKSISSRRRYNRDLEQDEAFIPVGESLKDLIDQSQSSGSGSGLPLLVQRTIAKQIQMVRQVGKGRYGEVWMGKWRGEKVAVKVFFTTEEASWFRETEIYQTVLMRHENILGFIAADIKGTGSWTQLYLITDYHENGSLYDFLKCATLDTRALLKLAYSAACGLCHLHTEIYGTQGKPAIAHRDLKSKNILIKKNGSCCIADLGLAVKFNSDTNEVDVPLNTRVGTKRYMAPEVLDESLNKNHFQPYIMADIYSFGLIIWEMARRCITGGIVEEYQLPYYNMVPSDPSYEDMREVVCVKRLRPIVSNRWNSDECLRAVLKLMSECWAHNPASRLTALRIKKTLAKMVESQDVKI

B1: anti-BMPR1A antibody 5M107 (antibody, part only; not given: light chain and constant regions, V domains shown, part only)
VH: EVQLQQSGPELVKPGTSVKISCKASGYSFTGYYMHWVKQSQVKSLEWIGRINPDNGGRTYNQIFKDKASLTVHKSSSTAYMELHSLTSDDSAVYYCTRERGQYGNYGGFSDWGQGTLVT
Sp7 gene expression levels in Saos2 cells (qPCR, relative to control antibody): 2.4 fold
